The values that follow come from the supplement of paper PMC9112550, “Optimization of the antimicrobial peptide Bac7 by deep mutational scanning” (BMC Biology, 2022).
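Further: peptides expressed intracellularly from a pBAD plasmid library in pooled LB shake-flask culture, induced with 0.3% L-arabinose, DNA abundance read by NGS, three biological replicates, DESeq2 with apeglm shrinkage.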

The series concerns Escherichia coli TOP10. Kind of series: shrunken log2 fold change of peptide-encoding DNA abundance (4.5 h post-induction vs induction); higher = less antimicrobial activity (less host growth inhibition). Conditions: time post-induction: 4.5 h; library: site-saturation at positions 5, 18, 19, 20.
Take RRIRPRPPRLPRPRPRPPHWPRP: the “shrunken log2 fold change” value is 0.865.

RRIRLRPPRLPRPRPRPFSKPRP: the “shrunken log2 fold change” value is -0.456. Take RRIRERPPRLPRPRPRPATNPRP: the “shrunken log2 fold change” value is -0.386. In the case of RRIRQRPPRLPRPRPRPHRAPRP it was -0.137; in that of RRIRFRPPRLPRPRPRPCFFPRP, -0.378.

For RRIRFRPPRLPRPRPRPYFCPRP, the “shrunken log2 fold change” value is -1.05. On to RRIRQRPPRLPRPRPRPWVIPRP, for which the “shrunken log2 fold change” value is -0.134.

Regarding RRIRLRPPRLPRPRPRPGNCPRP, the “shrunken log2 fold change” value was -0.0913.

Turning to RRIRTRPPRLPRPRPRPMKDPRP, the “shrunken log2 fold change” value was -0.303.

As to RRIRVRPPRLPRPRPRPGIYPRP, the “shrunken log2 fold change” value is -0.623. Take RRIRWRPPRLPRPRPRPMCSPRP: the “shrunken log2 fold change” value came to 0.197. Consider RRIRGRPPRLPRPRPRPKFYPRP, for which the “shrunken log2 fold change” value was -0.278.

Regarding RRIRVRPPRLPRPRPRPATIPRP, the “shrunken log2 fold change” value is -0.101. For the sequence RRIRFRPPRLPRPRPRPSITPRP, the “shrunken log2 fold change” value is -0.262. In the case of RRIRRRPPRLPRPRPRPTYTPRP it was -0.214; in that of RRIRWRPPRLPRPRPRPPQVPRP, 0.35.

As for RRIRGRPPRLPRPRPRPTQYPRP, the “shrunken log2 fold change” value stood at 0.337. RRIRPRPPRLPRPRPRPTCMPRP: the “shrunken log2 fold change” value was found to be 0.219.

Regarding RRIRKRPPRLPRPRPRPVYDPRP, the “shrunken log2 fold change” value amounted to 0.0473. In the case of RRIRGRPPRLPRPRPRPNISPRP it was 0.231; in that of RRIRDRPPRLPRPRPRPPHWPRP, 0.322; in that of RRIRWRPPRLPRPRPRPDTHPRP, 0.219. Take RRIRSRPPRLPRPRPRPGIIPRP: the “shrunken log2 fold change” value was -0.454. On to RRIRGRPPRLPRPRPRPVQRPRP, for which the “shrunken log2 fold change” value was found to be 0.739. In the case of RRIRSRPPRLPRPRPRPVKKPRP it was 0.0525; in that of RRIRTRPPRLPRPRPRPAYQPRP, -0.0436.

Regarding RRIRGRPPRLPRPRPRPVYQPRP, the “shrunken log2 fold change” value amounted to 0.0322. On to RRIRTRPPRLPRPRPRPMSSPRP, for which the “shrunken log2 fold change” value was -0.00458. On to RRIRERPPRLPRPRPRPDIMPRP, for which the “shrunken log2 fold change” value is -0.196. Regarding RRIRCRPPRLPRPRPRPKKMPRP, the “shrunken log2 fold change” value was 0.169. As to RRIRMRPPRLPRPRPRPQTVPRP, the “shrunken log2 fold change” value amounted to 0.291. The value for RRIRHRPPRLPRPRPRPYVCPRP was 0.0124. Turning to RRIRQRPPRLPRPRPRPPQIPRP, the “shrunken log2 fold change” value worked out at 0.238. RRIRGRPPRLPRPRPRPGYIPRP: the “shrunken log2 fold change” value was -0.0887.

With RRIRQRPPRLPRPRPRPHPLPRP, the “shrunken log2 fold change” value was -0.0478. Turning to RRIRWRPPRLPRPRPRPDQYPRP, the “shrunken log2 fold change” value was -0.154. Take RRIRFRPPRLPRPRPRPVHDPRP: the “shrunken log2 fold change” value was 0.0232. In the case of RRIRVRPPRLPRPRPRPAAGPRP, the “shrunken log2 fold change” value was 0.154. For RRIRKRPPRLPRPRPRPMTGPRP, the “shrunken log2 fold change” value was 0.0188. Regarding RRIRCRPPRLPRPRPRPMYDPRP, the “shrunken log2 fold change” value was -0.0891. With RRIRDRPPRLPRPRPRPEIEPRP, the “shrunken log2 fold change” value stood at 0.522. Take RRIRSRPPRLPRPRPRPYIAPRP: the “shrunken log2 fold change” value was -0.917. On to RRIRYRPPRLPRPRPRPWQPPRP, for which the “shrunken log2 fold change” value was -0.274.

For RRIRRRPPRLPRPRPRPVTVPRP, the “shrunken log2 fold change” value came out at 0.124. As for RRIRYRPPRLPRPRPRPLHGPRP, the “shrunken log2 fold change” value is -0.0615.

Consider RRIRTRPPRLPRPRPRPTCFPRP, for which the “shrunken log2 fold change” value was -0.35. For RRIRDRPPRLPRPRPRPITAPRP, the “shrunken log2 fold change” value is -0.283. For RRIRDRPPRLPRPRPRPKIVPRP, the “shrunken log2 fold change” value is -0.198.

Take RRIRKRPPRLPRPRPRPPFIPRP: the “shrunken log2 fold change” value was -0.00551. As for RRIRVRPPRLPRPRPRPSLEPRP, the “shrunken log2 fold change” value worked out at 0.163. With RRIRYRPPRLPRPRPRPELDPRP, the “shrunken log2 fold change” value is -0.165.

With RRIRMRPPRLPRPRPRPSEPPRP, the “shrunken log2 fold change” value came to 0.33.

With RRIRMRPPRLPRPRPRPQCNPRP, the “shrunken log2 fold change” value came to 0.041. For RRIRPRPPRLPRPRPRPNNVPRP, the “shrunken log2 fold change” value was -0.22. For the sequence RRIRTRPPRLPRPRPRPHDVPRP, the “shrunken log2 fold change” value is 0.00489.

For the sequence RRIRNRPPRLPRPRPRPAMAPRP, the “shrunken log2 fold change” value was 0.0129.

In the case of RRIRERPPRLPRPRPRPAHEPRP, the “shrunken log2 fold change” value was 0.0932. RRIRKRPPRLPRPRPRPTHTPRP: the “shrunken log2 fold change” value came to 0.285.

With RRIRDRPPRLPRPRPRPKQTPRP, the “shrunken log2 fold change” value turned out to be 0.0941. For the sequence RRIRKRPPRLPRPRPRPGGRPRP, the “shrunken log2 fold change” value was determined as 1.91. In the case of RRIRTRPPRLPRPRPRPSPHPRP, the “shrunken log2 fold change” value was -0.159. Regarding RRIRPRPPRLPRPRPRPMYYPRP, the “shrunken log2 fold change” value was -0.631. With RRIRWRPPRLPRPRPRPGSWPRP, the “shrunken log2 fold change” value worked out at 0.517.

For RRIRNRPPRLPRPRPRPMHPPRP, the “shrunken log2 fold change” value was -0.212. Consider RRIRQRPPRLPRPRPRPLYRPRP, for which the “shrunken log2 fold change” value was determined as 0.0401. Take RRIRQRPPRLPRPRPRPRLRPRP: the “shrunken log2 fold change” value turned out to be 0.44. Take RRIRLRPPRLPRPRPRPRQTPRP: the “shrunken log2 fold change” value stood at 1.27.

For RRIRFRPPRLPRPRPRPWEEPRP, the “shrunken log2 fold change” value is -0.159. Take RRIRVRPPRLPRPRPRPCGDPRP: the “shrunken log2 fold change” value is -0.18. The value for RRIRWRPPRLPRPRPRPGLQPRP was 0.0651; that for RRIRARPPRLPRPRPRPTVTPRP was 0.707. In the case of RRIRRRPPRLPRPRPRPIFYPRP, the “shrunken log2 fold change” value is -0.0503.

Consider RRIRCRPPRLPRPRPRPPADPRP, for which the “shrunken log2 fold change” value turned out to be 0.95. RRIRFRPPRLPRPRPRPSCRPRP: the “shrunken log2 fold change” value was -0.145. Regarding RRIRDRPPRLPRPRPRPCCFPRP, the “shrunken log2 fold change” value worked out at 0.395. The value for RRIRLRPPRLPRPRPRPFMAPRP was -0.343; that for RRIRMRPPRLPRPRPRPYYVPRP was -0.0412; that for RRIRTRPPRLPRPRPRPMMGPRP was -0.1. Take RRIRIRPPRLPRPRPRPKGTPRP: the “shrunken log2 fold change” value was found to be 0.0146. Turning to RRIRNRPPRLPRPRPRPEPYPRP, the “shrunken log2 fold change” value is 0.0346. The value for RRIRTRPPRLPRPRPRPLTCPRP was -0.809; that for RRIRTRPPRLPRPRPRPTFTPRP was 0.00867. In the case of RRIRLRPPRLPRPRPRPGISPRP, the “shrunken log2 fold change” value is -0.00752. The value for RRIRARPPRLPRPRPRPEYEPRP was 0.262. Regarding RRIRDRPPRLPRPRPRPPIIPRP, the “shrunken log2 fold change” value is -0.0464. In the case of RRIRPRPPRLPRPRPRPCKHPRP, the “shrunken log2 fold change” value is -0.131. As for RRIRTRPPRLPRPRPRPAVQPRP, the “shrunken log2 fold change” value amounted to 0.0481.

Turning to RRIRWRPPRLPRPRPRPDCGPRP, the “shrunken log2 fold change” value turned out to be 0.885. Consider RRIRCRPPRLPRPRPRPVTVPRP, for which the “shrunken log2 fold change” value is -0.484. Regarding RRIRIRPPRLPRPRPRPIIVPRP, the “shrunken log2 fold change” value was -0.666. For RRIRYRPPRLPRPRPRPACIPRP, the “shrunken log2 fold change” value was -0.389.
